Reference: patent US20030220285A1

Tests used:
[1] = target: purified HLA-A11 molecules (human)
[2] = target: purified HLA-A2.1 molecules (human); conditions: remark: other sources report otherwise

| Binder | IC50 [1] [nM] | IC50 [2] [nM] |
| --- | --- | --- |
| TVYYGVPVWK (modifications not checked) [HIV Env 49 (HIV env 49-58) peptide …] | 4 |  |
| WLSLLVPFV (modifications not checked) [HBV Env 335 (HBV env 335-343) peptide …] |  | 5 |
